In experiment [1] the target is T1, recombinant soluble human IL-6 receptor (SR344) (human, UniProt P08887 20-344, biotinylated (sites not given) where immobilized via streptavidin or used in phage ELISA).
T1 construct: also called soluble IL-6 receptor; membrane-type IL-6 receptor (when biotinylated and immobilized on the chip)
T1 sequence (looked up): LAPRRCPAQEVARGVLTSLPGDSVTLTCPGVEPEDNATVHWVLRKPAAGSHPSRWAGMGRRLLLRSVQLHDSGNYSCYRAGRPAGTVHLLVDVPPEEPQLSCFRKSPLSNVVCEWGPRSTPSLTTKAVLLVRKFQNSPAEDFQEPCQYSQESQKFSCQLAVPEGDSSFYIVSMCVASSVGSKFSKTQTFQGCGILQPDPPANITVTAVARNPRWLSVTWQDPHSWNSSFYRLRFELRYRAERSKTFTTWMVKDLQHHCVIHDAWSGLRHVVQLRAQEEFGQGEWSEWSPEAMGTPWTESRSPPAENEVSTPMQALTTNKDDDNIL
Kind of experiment: SPR Biacore T100, integrated RU of SR344 bound over ten cycles, 37 C. As to the method: The produced pH-dependent binding clones described above were analyzed using a Biacore T100™ surface plasmon resonance system (GE Healthcare) for their ability to bind to the antigen SR344 multiple times at pH 5.8 and pH 7.4. More specifically, the analysis was carried out as follows. All the measurements were carried out at 37° C. First, the sample antibodies described above were bound onto a recomb-protein A/G (Pierce)-immobilized sensor chip by amine-coupling, where the mobile phase buffer was 10 mM MES (pH 5.8), 150 mM NaCl, and 0.05% TWEEN® 20 (polyoxyethelene sorbitan monolaurate) (step 1). SR344 adjusted to a concentration of about 40 nM was injected as an analyte for 3 minutes at pH 7.4 and allowed to bind (the buffer for injected SR344 was 10 mM MES (pH 7.4), 150 mM NaCl, and 0.05% TWEEN® 20 (polyoxyethelene sorbitan monolaurate)) (step 2). Subsequently, the injection of SR344 was discontinued and a mobile phase of pH 5.8 was allowed to flow for about 70 seconds to expose the antibody/SR344 complex under acidic conditions (step 3). Ten sets of this binding (step 2)/acidity exposure (step 3) process were continuously repeated to observe the sensorgram in real-time, which is shown in FIG. 11. […] In the 10-set repetition of the binding (step 2) and acidic exposure (step 3), almost all H170/L82 and CLH5/L73 antibodies were able to bind to new antigens in each set. […]

The target in experiment [2] is T1, recombinant soluble human IL-6 receptor …. The experiment is described as follows: SPR Biacore T100, antibody on protein A/G chip, SR344 analyte, 37 C. The procedure:
(§1) Kinetic analyses of antigen-antibody reactions at pH 5.8 and pH 7.4 were carried out using a Biacore™ T100 surface plasmon resonance system (GE Healthcare) on the four antibodies: humanized PM1 antibody (WT) and H3pI/L73, CLH5/L73, and H170/L82 produced in Examples 2 and 4 (buffer: 10 mM MES (pH 7.4 or pH 5.8), 150 mM NaCl, and 0.05% TWEEN® 20 (polyoxyethelene sorbitan monolaurate)). Various antibodies were bound onto a sensor chip immobilized with recomb-protein A/G (Pierce) by amine coupling. SR344 adjusted to concentrations of 9.8 to 400 nM was injected to the chip as an analyte. […] All the measurements were carried out at 37° C. Association rate constants kₐ (1/Ms) and dissociation rate constants kd (1/s) were calculated using Biacore T100™ Evaluation Software (GE Healthcare), and dissociation constants KD (M) were calculated on the basis of those values (Table 5). Moreover, the ratio of the affinities at pH 5.8 and pH 7.4 were calculated for each clone to evaluate pH-dependent binding. All the measurements were carried out at 37° C.

Experiment [3] has the same target. Kind of experiment: SPR Biacore T100, antibody on protein A/G chip, SR344 analyte, pH 7.4, 37 C. The procedure:
as §1

The target is the same in experiment [4]. The experiment is described as follows: SPR Biacore T100, biotinylated SR344 on streptavidin chip (model of membrane IL-6 receptor), antibody 0.5 ug/mL as analyte, bound at pH 7.4, dissociation at pH 7.4, 37 C. The procedure:
(§2) The binding to membrane IL-6 receptor was evaluated by evaluating the binding to the IL-6 receptor immobilized onto a sensor chip. SR344 was biotinylated according to a method known to persons skilled in the art, and the biotinylated SR344 was immobilized on the sensor chip via streptavidin by utilizing the affinity between streptavidin and biotin. All the measurements were carried out at 37° C., and the mobile phase buffer contained 10 mM MES (pH 5.8), 150 mM NaCl and 0.05% TWEEN® 20 (polyoxyethelene sorbitan monolaurate). The pH-dependent binding clones were injected therein under the condition of pH 7.4 and allowed to bind to SR344 (injection sample buffer: 10 mM MES (pH 7.4), 150 mM NaCl, 0.05% TWEEN® 20 (polyoxyethelene sorbitan monolaurate)), and the pH-dependent dissociation of each clone at the mobile phase pH of 5.8 was observed (FIG. 10).
(§3) The dissociation rate […]) at pH 5.8 was calculated using Biacore T100™ Evaluation Software (GE Healthcare) by fitting only the dissociation phase at pH 5.8, where 0.5 μg/mL of the sample was bound in 10 mM MES (pH 7.4), 150 mM NaCl, and 0.05% TWEEN® 20 (polyoxyethelene sorbitan monolaurate), and dissociated in 10 mM MES (pH 5.8), 150 mM NaCl, and 0.05% TWEEN® 20 (polyoxyethelene sorbitan monolaurate). Similarly, the dissociation rate (kd(1/s)) at pH 7.4 was calculated using Biacore T100™ Evaluation Software (GE Healthcare) by fitting only the dissociation phase at pH 7.4, where 0.5 μg/mL of the sample was bound in 10 mM MES (pH 7.4), 150 mM NaCl, and 0.05% TWEEN® 20 (polyoxyethelene sorbitan monolaurate), and dissociated in 10 mM MES (pH 7.4), 150 mM NaCl, and 0.05% TWEEN® 20 (polyoxyethelene sorbitan monolaurate).

The target is the same in experiment [5]. The experiment is described as follows: SPR Biacore T100, biotinylated SR344 on streptavidin chip (model of membrane IL-6 receptor), antibody 0.5 ug/mL as analyte, bound at pH 7.4, dissociation at pH 5.8, 37 C. As to the method:
as §2, §3

Experiment [6] shares this target. Kind of experiment: SPR Biacore T100, biotinylated SR344 on streptavidin chip (model of membrane IL-6 receptor), antibody 0.5 ug/mL as analyte, 37 C. As to the method: as §2, §3
Experiment [7] has the same target. The experiment is described as follows: SPR Biacore T100, antibody on protein A/G chip, SR344 analyte, 37 C, ratio of pH 5.8 to pH 7.4. The procedure: as §1
Experiment [8] shares this target. The experiment is described as follows: SPR Biacore T100, antibody on protein A/G chip, SR344 analyte, pH 5.8, 37 C. As to the method: as §1
Experiment [9] has as its target T2, soluble mouse IL-31 receptor (mouse, UniProt Q8K5B1 19-499).
T2 sequence (looked up): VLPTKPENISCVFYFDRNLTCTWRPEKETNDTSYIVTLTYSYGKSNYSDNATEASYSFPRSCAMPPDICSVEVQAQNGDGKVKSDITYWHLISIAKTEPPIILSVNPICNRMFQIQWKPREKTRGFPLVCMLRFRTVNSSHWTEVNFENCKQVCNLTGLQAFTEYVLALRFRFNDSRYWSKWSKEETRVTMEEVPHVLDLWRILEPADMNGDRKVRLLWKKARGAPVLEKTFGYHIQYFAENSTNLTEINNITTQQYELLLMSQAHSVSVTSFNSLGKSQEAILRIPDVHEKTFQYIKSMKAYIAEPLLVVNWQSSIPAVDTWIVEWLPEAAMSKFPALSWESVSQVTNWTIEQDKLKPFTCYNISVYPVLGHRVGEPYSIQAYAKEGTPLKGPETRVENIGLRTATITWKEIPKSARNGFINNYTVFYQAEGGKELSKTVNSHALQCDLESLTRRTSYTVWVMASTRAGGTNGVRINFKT
The experiment is described as follows: SPR Biacore T100, antibody on protein A/G chip, soluble mouse IL-31 receptor analyte, pH 5.5, 25 C. As to the method: (§4) Kinetic analysis of antigen-antibody reactions at pH 5.5 and pH 7.4 was carried out using a Biacore T100™ surface plasmon resonance system (GE Healthcare) for the two types of antibodies prepared as mentioned above: Anti-IL31R wild type and Anti-IL31R clone 1 (buffer: DPBS(−) (pH 7.4 or pH 5.5), 150 mM NaCl, 0.01% TWEEN® 20 (polyoxyethelene sorbitan monolaurate), 0.02% NaN₃). The antibodies were bound to a sensor chip on which recomb-protein A/G (Pierce) was immobilized by amine coupling, and then the soluble mouse IL-31 receptor (prepared according to the method described in WO 2007/142325) adjusted to an appropriate concentration was injected therein as an analyte. All the measurements were carried out at 25° C. Association rate constants kₐ (1/Ms) and dissociation rate constants kd (1/s) were calculated using Biacore T100™ Evaluation Software (GE Healthcare), and dissociation constants KD (M) were calculated based on those values (Table 16). Furthermore, the ratio of affinity at pH 5.5 and pH 7.4 was calculated for each clone to evaluate the pH-dependent binding.

The target in experiment [10] is T2, soluble mouse IL-31 receptor. The experiment is described as follows: SPR Biacore T100, antibody on protein A/G chip, soluble mouse IL-31 receptor analyte, 25 C. The procedure:
as §4

Experiment [11] shares this target. The experiment is described as follows: SPR Biacore T100, antibody on protein A/G chip, soluble mouse IL-31 receptor analyte, pH 7.4, 25 C. The procedure:
as §4

The target is the same in experiment [12]. Kind of experiment: SPR Biacore T100, antibody on protein A/G chip, soluble mouse IL-31 receptor analyte, 25 C, ratio of pH 5.5 to pH 7.4. As to the method:
as §4

B1: CLH5/L73 (antibody, IgG1, V domains shown)
VH: QVQLQESGPGLVKPSETLSLTCAVSGYSISHDHAWSWVRQPPGEGLEWIGHISYSGITNYNPHLKGRVTISRDTSKNQFSLKLSSVTAADTAAYYCARFLARITAHDHWGEGTLVTVSS
VL: DIQMTQSPSSLSASVGDSVTITCQASQHISSHLNWYQQKPGKAPELLIYYGSHLHSGVPSRFSGSGSGTDFTFTISSLEAEDAATYYCGQGNRLPYTFGQGTKVEIE
notes: expressed and purified as IgG
Take B1: the “total amount of antigen bound over ten cycles relative to WT” value in [1] is about 4 fold. Also, the “pH-dependent binding (affinity ratio) relative to WT” value in experiment [2] was over 15 fold. The Kd is 0.0011 µM in experiment [3] and 0.074 µM in experiment [8]. Besides, the koff stood at 0.00079 s⁻¹ in [3], 0.00104 s⁻¹ in [4], 0.00567 s⁻¹ in experiment [5] and 0.028 s⁻¹ in [8]. The kon in experiment [3] amounted to 710000 M⁻¹ s⁻¹; in [8] it was 380000 M⁻¹ s⁻¹. Also, the “kd ratio pH 5.8/pH 7.4” value in experiment [6] amounted to 5.5. The “KD (pH 5.8)/KD (pH 7.4)” value in experiment [7] is 66.1.

B2: Anti-IL31R clone 1 (antibody, human IgG1, lambda, V domains shown)
VH: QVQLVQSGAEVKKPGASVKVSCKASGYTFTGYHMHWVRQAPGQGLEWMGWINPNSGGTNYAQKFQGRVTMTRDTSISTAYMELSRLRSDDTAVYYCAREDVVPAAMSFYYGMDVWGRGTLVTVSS
VL: LPVLTQPPSVSVAPGQTARITCGGNNIGSKTVYWYQQEPGQAPVLVVYDDTDRPAGIPERFSGANSGNTATLTISRVEAGDEADYYCQVWDSSTDHGVFGGGTKLTVLG
notes: H chain (c1) / L chain (WT)
Turning to B2, in [9], the Kd was 22 µM, the koff was 0.024 s⁻¹ and the kon is 1100 M⁻¹ s⁻¹. The “pH-dependent binding ability relative to WT” value in [10] is about 300 fold. Also, in experiment [11], the Kd came to 0.022 µM, the koff is 0.0033 s⁻¹ and the kon was 170000 M⁻¹ s⁻¹. Further, in experiment [12], the “KD (pH 5.5)/KD (pH 7.4)” value was determined as 1000.
